Source: the nanobody polyreactivity screen of Harvey et al. (2022)

Assay: yeast display, Sf9 membrane polyspecificity reagent, FACS + sequencing; frameworks hold sequencing errors
Method in brief: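 Nanobodies came from a synthetic yeast display library in Saccharomyces cerevisiae BJ5465, induced with galactose for 36–48 hours and stained for 1 hour at 4 °C with 10% biotinylated, detergent-solubilized Sf9 membrane reagent. Cells were enriched on streptavidin microbeads and then FACS-sorted, with low and high (top ~1%) gates set on anti-HA fluorescence for expression and streptavidin fluorescence for reagent binding. Each polyreactivity label reflects the gate a clone came from. Genes were amplified by colony PCR, sequenced by MiSeq 2 × 250 and filtered by CDR length.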

Row | Sequence | polyreactivity (PSR sort gate)
1 | QVQLVESGGGLVQAGGSLRLSCAASGIIFLENAMGWYRQAPGKERELVAGISSGGNTNYADSVKGRFTISRDNAKNTVYLQMNSLKPEDTALYYCNKFGYHREYDYWGQVTQVTVSS | low polyreactivity
2 | QVQLVESGGGLVQAGGSLRLSCAASGIIFLVNAMGWYRQAPGKESELVATITSGGSTYADSVKGRFTISRDNAKYTVYLQMNSLKPEDTAVYYCAAVRRRRNSYGYWGQGTQVTVSS | high polyreactivity
3 | QVQLVESGGGLVQAGGSLRLSCAASGIIFLWYAMRWYRQAPGKERELVAAISRTGSSTYYADSVKGRFTISRDTAKNTVYLQMNSLKPEDTAVYYCAAAYYSNRSWRFDYWGQGTQVTVSS | high polyreactivity
4 | QVQLVESGGGLVQAGGSLRLSCAASGIIFLYNDMGGYRHAPGKEREFVATISRSGGSTYYADSVKGRFTISRDNAKNTVYLQMNSLKPEDTAVYYCAADEDSGYGYWGQGTQVTVSS | low polyreactivity
5 | QVQLVESGGGLVQAGGSLRLSCAASGIIFNKYAMGWYRQAPGKEREFVAAITYRGGSTYYADSVKGRFTISRDNAKNTVYLQMNSLKPEDTAVYYCAARRITTYYYWGQGTQVTVSS | high polyreactivity
6 | QVQLVESGGGLVQAGGSLRLSCAASGIIFNSNAMGWYRQAPGKERELVAAISVSGGSTYYADSVKGRFTISRDNAKNTVYLQMNILKPEDTAVYYCAAVFYYWSLRSYYWGQGTQVTVSS | high polyreactivity
7 | QVQLVESGGGLVQAGGSLRLSCAASGIIFNWYAMGWYRQAPGKERELVAGISTSGGSTYYADSVKGRFTISRDNAKNTVYLQMNSLKPEDTAVYYCAARSRRYYGYDYWGQGTQVTVSS | high polyreactivity
8 | QVQLVESGGGLVQAGGSLRLSCAASGIIFPFYGMGWYRPAPGKERELVAAITSGDDTYYADSVKGRFTISRDNAKNTVYLQMNSLKPEDTAVYYCNKRVYIAGYWPQLYYIMDYWGQGTQVTVSS | low polyreactivity
9 | QVQLVESGGGLVQAGGSLRLSCAASGIIFPGYAMGWYRQAPGKERELVAAISRSGASTYYADSVKGRFTISRDNAKNTVYLQMNSLKPEDTAVYYCAAEWYRGGEYRRYDYWGQGTQVTVSS | high polyreactivity
10 | QVQLVESGGGLVQAGGSLRLSCAASGIIFPGYAMGWYRQAPGKERELVAAISSSGSSTYYADSVKGRFTISRDNGKNTVYLQMNSLKPEDTAVYYCAAVRYGLRRMDYWGQGTQVTVSS | high polyreactivity
11 | QVQLVESGGGLVQAGGSLRLSCAASGIIFPKYVMGWYRKAPGKERELVAAISWSGTSTYYADSVKGRFTISRDNAKNTVYLQMNSLKPEDTAVYYCAARWSSTTGRFDYWGQGTQVTVSS | high polyreactivity
12 | QVQLVESGGGLVQAGGSLRLSCAASGIIFPPYAMGWYRQAPGKEREFVAGITSSGGTYYADSVKGRFTISRDNAKNTVFLQMNSLKPDDTAVYYCAARQGNLRRGFRWFNYWGQGTQVTVSS | high polyreactivity
13 | QVQLVESGGGLVQAGGSLRLSCAASGIIFPRYAMGWYRQAPGKEREVVAAITSGGSTYYADSVKGRFTISRDNAKNTVYLQINSLKPEDTAVSYCAAVRYSWDIYREYYYWGQGTQVTVSS | high polyreactivity
14 | QVQLVESGGGLVQAGGSLRLSCAASGIIFPRYAMGWYRQEPGKERELVAAITRRGGRTYYADSVKGRFTISRDNAKNTVYLQMNSLKPEDTAVYYCAARKVNRGSGGYDSWGQGTQVTVSS | high polyreactivity
15 | QVQLVESGGGLVQAGGSLRLSCAASGIIFPSYAMGWYRQAPGKERELVAGISSGGNTYYADSVKGRFTISRDNAKNTVYLQMNSLKPEDTAVYYCATAFAIWGLYYGYDYWGQGTQVTVSS | low polyreactivity
16 | QVQLVESGGGLVQAGGSLRLSCAASGIIFPSYDMGWYRQAPGKERELVAGITDGGDTTYADSVKWRFTISRDNAKNTVYLQMNSLKPEDTAVYYCAADIGYGYWHFDYWGQGTQVTVSW | low polyreactivity
17 | QVQLVESGGGLVQAGGSLRLSCAASGIIFPWYDMGWYRQAPGKERELVAGITDGGDTTYADSVKWRFTISRDNAKNTVYLQMNSLKPEDTAVYYCAADIGYGYWHFDYWGQGTQVTVSS | low polyreactivity
18 | QVQLVESGGGLVQAGGSLRLSCAASGIIFPWYTMGWYRQAPGKERELVAAISSGGRTNYADSVKGRFTISRDNAKYTVYLQMNSLKPEDTAVYYCAAKYYRDRDWGQGTQVTVSS | high polyreactivity
19 | QVQLVESGGGLVQAGGSLRLSCAASGIIFPYYAMGLYRQAPGKERELVAAITSRTGSTYYADSVKGRFTISRDNAKNTVYLQMNSLNTEYTAVYYCIKEREPYGYWSFDYWGQGTQVTVSS | low polyreactivity
20 | QVQLVESGGGLVQAGGSLRLSCAASGIIFPYYAMGWSRQGPGKERELVAGISSSGGITYADSVKGRFTISRDNAKYTVYLQMNSLKPEDTAVYYCNAEYQWLEYDYWGQGTQVTVSS | low polyreactivity
21 | QVQLVESGGGLVQAGGSLRLSCAASGIIFPYYAMGWYRPAPGKERELVAAITSSGGSTYYADSVKGRFTISRDNAKNTVYLQMNSLKPEDSAVYYCAAQTWGHGGDSWGQGTQVTVSS | high polyreactivity
22 | QVQLVESGGGLVQAGGSLRLSCAASGIIFPYYTMGWYRQAPGKERELVARITNGGRTYYADSVKGRFTISRDNAKNTVYLQMISLKPEDTAVYYCNAGRYYIGGYWGQGTQVTVSS | high polyreactivity

Row | Sequence | polyreactivity (PSR sort gate)
23 | QVQLVESGGGLVQAGGSLRLSCAASGIIFQGYVMGWYRQAPGKERELVAVISRTRGSTYYADSVKGRFTISRDNAKNTVYLQMNSLKPEDTAVYYCAAGTPRLRYLQGHRMNYWGQGTQVTVSS | high polyreactivity
24 | QVQLVESGGGLVQAGGSLRLSCAASGIIFQNYAMGWYRPAPGKERELVAVISNTGSTNYADSVKGRFTISRDNAKNTVYLQMNSLKPEDTAVYYCAAEFRVVDWLWFDYWGQGTQVTVSS | high polyreactivity
25 | QVQLVESGGGLVQAGGSLRLSCAASGIIFQSYTMGWYRQPPGKERELVAAIDSGGSTYYADSVKGRFTISRDNAKNTVYLQMNSLKPEDTAVYYCATDYPLSWSPLYDYDYWGQGTQVTVSS | low polyreactivity
26 | QVQLVESGGGLVQAGGSLRLSCAASGIIFRDYDMGWYRQAPGKERELVAAITWDGGSTYYADSVKGRFTISRDNAKNTVYLQMNSLTPEDTAVYYCAADSRYHYYVGYYYWGQGTQVTVSS | high polyreactivity
27 | QVQLVESGGGLVQAGGSLRLSCAASGIIFRGNAMGWYRQAPGKERELVAGISSRGGSTYYADSVKGRFTISRDNAKNTVYLQMNSLKPEDTAVYYCAAQYRSYLSGYGYWGQGTQVTVSS | high polyreactivity
28 | QVQLVESGGGLVQAGGSLRLSCAASGIIFRGYVMGLYIQAPGKERELVAAINSSTGSTYYADSVKGRFTISRDNAKNTVYLQMNSLKPEDTAVYYCNAEDRGSTYVDFDYWGQGTQVTVSS | low polyreactivity
29 | QVQLVESGGGLVQAGGSLRLSCAASGIIFRLNAMGWYRQAPGIERELVAAILRRGGSTYYADSVKGRFTISRDNAKNTVYLQMNSLKPEDTAVYYCAKDPHGSDFGYWGQGTQVTVSS | low polyreactivity
30 | QVQLVESGGGLVQAGGSLRLSCAASGIIFRNYAMGWYRPAPGKEREFVASITKRGGSTYYADSVKGRFTISRDNAKNTVYLQINSLKPEDTAVYYCNTQWYRGRTEYGYWGQGTQVTVSS | high polyreactivity
31 | QVQLVESGGGLVQAGGSLRLSCAASGIIFRPYAMGWYRQAPGKERELVAAITWSGTSTYYADSVKGRFTISRDNAKNTVYLQMNSLKPEDTAVYYCAATWSYGVSWYEYWGQGTQVTVSS | high polyreactivity
32 | QVQLVESGGGLVQAGGSLRLSCAASGIIFRRNAMGWYRQAPGKERELVASITSGGSTNYADSVKGRFTISRDNAKNTVYLQMNSLKPEDTAVYYCATVRKYRAMDYWGQGTQVTVSS | high polyreactivity
33 | QVQLVESGGGLVQAGGSLRLSCAASGIIFRRYAMGWYRQAPGKERELVAAIRTSGGNTYYADSVKGRFTISRDNAKNTVYLQMNSLKPEDTAVYYCAARRHYTYGNGPSRGGQMDYWGQGTQVTVSS | high polyreactivity
34 | QVQLVESGGGLVQAGGSLRLSCAASGIIFRRYAMGWYRQAPGKERELVAAITSGGSTYYADSVKGRFTISRDNAKNTVYLQLHSLKPEDTAVYYCNKGGYAIRYDYYWGQGTQVTVSS | high polyreactivity
35 | QVQLVESGGGLVQAGGSLRLSCAASGIIFRRYAMGWYRQAPGKERELVATITRSGSTNYADSVKGRFTISRDNAKNTVYLQMNSLKPEDTAVYYCNADYIRGGWYSEDYWGQGTQVTVSS | high polyreactivity
36 | QVQLVESGGGLVQAGGSLRLSCAASGIIFRRYAMGWYRQAPVKERELVAAITRGGITYYADSVKGRFTISRDNAKNTVYLQMNSLKPEDTAVYYCAALAYPQEYDYWGQGTQVTVSS | low polyreactivity
37 | QVQLVESGGGLVQAGGSLRLSCAASGIIFRSYAMGWYRQAPGKERELVAAITGGGTTNYADSVKGRFTISRDNAKNTVYLQMNSLKPEDTEVYYCNAGLDWFWFNEMDYWGQGTQVTVSS | low polyreactivity
38 | QVQLVESGGGLVQAGGSLRLSCAASGIIFRSYAMGWYRQAPGKERELVASITSGGSTNYADSVKGRFTNSRDNAKNTVYLQMNSLKPEDTAVYYCAADYYYTSFGGYDYWGQGTQVTVSS | high polyreactivity
39 | QVQLVESGGGLVQAGGSLRLSCAASGIIFRWYAMGWYRQAPGKERELVAAISRSGSSTYYADSVKGRFTISRDNAKNTVYLQMNSLKPEDTAVYYCNAEYQAPTEKGRYYYPWPYEYWGQGTQVTVSS | high polyreactivity
40 | QVQLVESGGGLVQAGGSLRLSCAASGIIFRYNAMGWYRPAPGKERELVAAITSGGITKYADSVKGRFTISRDNAKNTVYLQMNSLKPEDTAVYYCNAEYGFFRAGSRGEYWGQGTQVTVSS | low polyreactivity
41 | QVQLVESGGGLVQAGGSLRLSCAASGIIFRYNAMGWYSQAPGKDRELVAAITYRGGSTRYADSVKGRFTISRDNAKNTVYLQMNSLKPEDTAVYYCNAQRRTYIYDYWGQGTQVTVSS | high polyreactivity
42 | QVQLVESGGGLVQAGGSLRLSCAASGIIFRYNTMGWYRQEPGKERELVAAISWSGDSTYYADSVKGRFTISRDNAKNTVYLQMNSLKPEDTAVYYCARSQFSRSPSRMGYWGEGTQVTVSS | high polyreactivity
43 | QVQLVESGGGLVQAGGSLRLSCAASGIIFRYYAMGLYRQAPGKERELVAAITTGGSTYYADSVKGRFTISRDNAKNTVYLQMNSLKPEDTAVYYCAAQILVRHIPYYYWGQGTQVTVSS | high polyreactivity
